Laboratory results from patent US20110311550A1.

Columns and labels:
Experiment in all cases: ELISA, lectin-captured E1E2 lysate, Ab 1 ug/ml
[1] = target: E1E2 complex (H77) with E1 mutation A319G (HCV genotype 1a, isolate H77) (UniProt P27958)
[2] = target: E1E2 complex (H77) with E1 mutation D346A (HCV genotype 1a, isolate H77) (UniProt P27958)
[3] = target: E1E2 complex (H77) with E1 mutation F291A (HCV genotype 1a, isolate H77) (UniProt P27958)
[4] = target: E1E2 complex (H77) with E1 mutation G282A (HCV genotype 1a, isolate H77) (UniProt P27958)
[5] = target: E1E2 complex (H77) with E1 mutation G315A (HCV genotype 1a, isolate H77) (UniProt P27958)
[6] = target: E1E2 complex (H77) with E1 mutation H261A (HCV genotype 1a, isolate H77) (UniProt P27958)
[7] = target: E1E2 complex (H77) with E1 mutation L221A (HCV genotype 1a, isolate H77) (UniProt P27958)
[8] = target: E1E2 complex (H77) with E1 mutation N196A/N305A (HCV genotype 1a, isolate H77) (UniProt P27958)
[9] = target: E1E2 complex (H77) with E1 mutation N205A (HCV genotype 1a, isolate H77) (UniProt P27958)
[10] = target: E1E2 complex (H77) with E1 mutation N209A (HCV genotype 1a, isolate H77) (UniProt P27958)
[11] = target: E1E2 complex (H77) with E1 mutation N305A (HCV genotype 1a, isolate H77) (UniProt P27958)
[12] = target: E1E2 complex (H77) with E1 mutation N305A/N209A (HCV genotype 1a, isolate H77) (UniProt P27958)
[13] = target: E1E2 complex (H77) with E1 mutation N305A/N325A (HCV genotype 1a, isolate H77) (UniProt P27958)
[14] = target: E1E2 complex (H77) with E1 mutation P295A (HCV genotype 1a, isolate H77) (UniProt P27958)
[15] = target: E1E2 complex (H77) with E1 mutation R317A (HCV genotype 1a, isolate H77) (UniProt P27958)
[16] = target: E1E2 complex (H77) with E1 mutation S211A (HCV genotype 1a, isolate H77) (UniProt P27958)
[17] = target: E1E2 complex (H77) with E1 mutation V246A (HCV genotype 1a, isolate H77) (UniProt P27958)
[18] = target: E1E2 complex (H77) with E1 mutation V266A (HCV genotype 1a, isolate H77) (UniProt P27958)
[19] = target: E1E2 complex (H77) with E1 mutation W320A (HCV genotype 1a, isolate H77) (UniProt P27958)
[20] = target: E1E2 complex (H77) with E1 mutation W326A (HCV genotype 1a, isolate H77) (UniProt P27958)
[21] = target: E1E2 complex (H77) with E1 mutation W353A (HCV genotype 1a, isolate H77) (UniProt P27958)
[22] = target: E1E2 complex (H77) with E1 mutation Y309A (HCV genotype 1a, isolate H77) (UniProt P27958)
[23] = target: E1E2 complex (H77) with E2 mutation E637A (HCV genotype 1a, isolate H77) (UniProt P27958)
[24] = target: E1E2 complex (H77) with E2 mutation L427A (HCV genotype 1a, isolate H77) (UniProt P27958)
[25] = target: E1E2 complex (H77) with E2 mutation L441A (HCV genotype 1a, isolate H77) (UniProt P27958)
[26] = target: E1E2 complex (H77) with E2 mutation N428A (HCV genotype 1a, isolate H77) (UniProt P27958)
[27] = target: E1E2 complex (H77) with E2 mutation R639A (HCV genotype 1a, isolate H77) (UniProt P27958)
[28] = target: E1E2 complex (H77) with E2 mutation T621A (HCV genotype 1a, isolate H77) (UniProt P27958)
[29] = target: E1E2 complex (H77) with E2 mutation Y624A (HCV genotype 1a, isolate H77) (UniProt P27958)

How did the Binding relative to wt (%) [1] turn out when mouse anti-E1 MAb A4 (antibody) was run?
The Binding relative to wt (%) was 101%.

And the Binding relative to wt (%) [2]?
The Binding relative to wt (%) was 87%.

What about the Binding relative to wt (%) [3] of the same substance?
Its Binding relative to wt (%) is 67%.

And the Binding relative to wt (%) [4]?
Its Binding relative to wt (%) is 50%.

And the Binding relative to wt (%) [5]?
Its Binding relative to wt (%) is 91%.

What about the Binding relative to wt (%) [6] of the same substance?
The Binding relative to wt (%) was 96%.

What about the Binding relative to wt (%) [7] of the same substance?
Its Binding relative to wt (%) is 104%.

And the Binding relative to wt (%) [8]?
The Binding relative to wt (%) was 69%.

What about the Binding relative to wt (%) [9] of the same substance?
The Binding relative to wt (%) was 96%.

What about the Binding relative to wt (%) [10] of the same substance?
Its Binding relative to wt (%) is 119%.

And the Binding relative to wt (%) [11]?
Its Binding relative to wt (%) is 123%.

What about the Binding relative to wt (%) [12] of the same substance?
The Binding relative to wt (%) was 117%.

And the Binding relative to wt (%) [13]?
Its Binding relative to wt (%) is 114%.

What about the Binding relative to wt (%) [14] of the same substance?
The Binding relative to wt (%) was 132%.

What about the Binding relative to wt (%) [15] of the same substance?
Its Binding relative to wt (%) is 95%.

And the Binding relative to wt (%) [16]?
Its Binding relative to wt (%) is 106%.

And the Binding relative to wt (%) [17]?
The Binding relative to wt (%) was 96%.

What about the Binding relative to wt (%) [18] of the same substance?
Its Binding relative to wt (%) is 96%.

And the Binding relative to wt (%) [19]?
Its Binding relative to wt (%) is 105%.

And the Binding relative to wt (%) [20]?
Its Binding relative to wt (%) is 72%.

And the Binding relative to wt (%) [21]?
Its Binding relative to wt (%) is 75%.

And the Binding relative to wt (%) [22]?
Its Binding relative to wt (%) is 78%.

And the Binding relative to wt (%) [23]?
Its Binding relative to wt (%) is 122%.

And the Binding relative to wt (%) [24]?
Its Binding relative to wt (%) is 102%.

What about the Binding relative to wt (%) [25] of the same substance?
The Binding relative to wt (%) was 111%.

And the Binding relative to wt (%) [26]?
The Binding relative to wt (%) was 127%.

And the Binding relative to wt (%) [27]?
The Binding relative to wt (%) was 162%.

What about the Binding relative to wt (%) [28] of the same substance?
Its Binding relative to wt (%) is 114%.

What about the Binding relative to wt (%) [29] of the same substance?
The Binding relative to wt (%) was 121%.
